The target of assay [1] is T1, hmm.hTfRC (REGN2431), human transferrin receptor extracellular domain with hexahistidine-myc-myc tag (human, UniProt P02786 89-760).
T1 construct: Monomeric recombinant protein, 79210 g/mol; also called hTFR-mmh; His-myc-myc-hTFRC ecto
Put plainly: SPR (Biacore), mAb captured on anti-human Fc, 100 nM hTFR-mmh, 25 C. The procedure: (§1) Biacore binding kinetics assays were conducted for the interaction of 32 anti-human TfR IgG1 monoclonal antibodies from CHO supernatants with TfR reagents at 25° C.
(§2) Equilibrium dissociation constants (KD) for the interaction of anti-TfR monoclonal antibodies with human and fascicularis monkey TfR ecto domain recombinant proteins were determined using a real-time surface plasmon resonance (SPR) based Biacore S200 biosensor. All binding studies were performed in 10 mM HEPES, 150 mM NaCl, 3 mM EDTA, and 0.05% v/v surfactant Tween-20, pH 7.4 (HBS-EP) running buffer at […]. The Biacore CM5 sensor surface was first derivatized by amine coupling with a monoclonal mouse anti-human Fc antibody (REGN2567) followed by a step to capture anti-TfR monoclonal antibodies in CHO conditioned media. […] The dissociation of TfR bound to anti-TfR monoclonal antibodies was monitored for 3 minutes in HBS-EP running buffer. At the end of each cycle, the anti-TfR monoclonal antibodies capture surface was regenerated using a 12-sec injection of 20 mM H₃PO₄. The association rate (ka) and dissociation rate (kd) were determined by fitting the real-time binding sensorgrams to a 1:1 binding model with mass transport limitation using Scrubber 2.0 c software. The dissociation equilibrium constant (KD) and dissociative half-life (t½) were calculated from the kinetic rate constants as: […]
On the technique in general: Surface plasmon resonance follows binding to a sensor surface in real time, without labels.

Assay [2] concerns the target T2, mf TFRC ecto-mmh (REGN2054), monomeric monkey (cyno) Tfrc ectodomain with C-terminal myc-myc-hexahistidine tag (monkey (cyno), Macaca fascicularis, UniProt H9EXL1 89-760).
T2 construct: range 89-760; also called mfTfR-mmh; mfTFR-mmh
Put plainly: SPR (Biacore), mAb captured on anti-human Fc, 100 nM mfTfR-mmh, 25 C. The procedure:
as §1, §2

The Kd is the constant that tells how readily two partners part at equilibrium. Usually koff stands for a measure of how fast the partners let go of each other. What is called kon is the second-order rate constant of association. In general, t½ refers to the time needed for the level to fall by half in the phase considered.

T1 sequence (P02786 other isoform, or with tags, fused parts or gaps): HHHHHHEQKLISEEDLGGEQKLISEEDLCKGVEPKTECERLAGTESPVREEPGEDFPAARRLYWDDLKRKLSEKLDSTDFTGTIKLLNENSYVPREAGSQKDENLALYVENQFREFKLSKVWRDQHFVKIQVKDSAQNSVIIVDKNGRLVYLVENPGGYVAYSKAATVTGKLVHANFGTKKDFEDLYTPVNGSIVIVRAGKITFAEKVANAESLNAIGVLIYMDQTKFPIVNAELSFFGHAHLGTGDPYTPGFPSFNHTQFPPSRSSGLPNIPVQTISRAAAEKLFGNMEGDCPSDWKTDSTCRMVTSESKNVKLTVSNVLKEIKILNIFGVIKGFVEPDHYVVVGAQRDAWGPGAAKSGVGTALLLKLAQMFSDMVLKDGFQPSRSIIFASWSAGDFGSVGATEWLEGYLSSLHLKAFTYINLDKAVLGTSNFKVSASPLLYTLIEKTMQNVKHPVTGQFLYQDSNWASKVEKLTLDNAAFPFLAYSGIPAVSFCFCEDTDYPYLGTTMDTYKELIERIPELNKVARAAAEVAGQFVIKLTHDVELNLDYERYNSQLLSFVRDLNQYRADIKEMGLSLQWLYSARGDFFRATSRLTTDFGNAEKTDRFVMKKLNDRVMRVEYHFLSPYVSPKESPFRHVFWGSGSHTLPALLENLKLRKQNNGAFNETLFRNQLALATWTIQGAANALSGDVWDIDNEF
T2 sequence (chain, as listed by the source): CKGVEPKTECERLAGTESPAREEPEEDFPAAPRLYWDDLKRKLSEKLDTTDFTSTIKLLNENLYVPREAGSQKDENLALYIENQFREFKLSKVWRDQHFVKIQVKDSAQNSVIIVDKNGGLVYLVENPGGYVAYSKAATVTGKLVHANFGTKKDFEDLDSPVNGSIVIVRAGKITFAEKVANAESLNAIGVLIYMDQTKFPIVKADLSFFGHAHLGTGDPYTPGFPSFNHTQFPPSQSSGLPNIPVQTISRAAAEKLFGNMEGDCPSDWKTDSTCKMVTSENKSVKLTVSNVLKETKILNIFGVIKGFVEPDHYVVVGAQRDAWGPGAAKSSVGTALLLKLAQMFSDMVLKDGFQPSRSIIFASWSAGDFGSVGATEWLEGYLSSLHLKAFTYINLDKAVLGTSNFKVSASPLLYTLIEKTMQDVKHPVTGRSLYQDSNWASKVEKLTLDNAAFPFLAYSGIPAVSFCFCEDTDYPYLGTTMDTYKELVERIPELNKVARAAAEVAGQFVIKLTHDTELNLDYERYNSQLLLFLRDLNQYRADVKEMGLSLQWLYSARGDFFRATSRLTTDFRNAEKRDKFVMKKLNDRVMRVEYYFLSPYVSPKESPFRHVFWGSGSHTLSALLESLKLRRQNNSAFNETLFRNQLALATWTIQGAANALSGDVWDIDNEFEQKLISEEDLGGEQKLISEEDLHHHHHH

B1: 69340 (antibody, human IgG1, kappa, V domains shown)
VH: EVQLVESGGGLVQPGRSLRLSCAASGFTFDDKAMHWVRQVPGKGLEWISGISWNSGTIGYADSVKGRFIISRDNAKNSLYLQMNSLRAEDTALYYCAKDGDTSGWYWYGLDVWGQGTTVTVSS
VL: EIVLTQSPATLSLSPGERATLSCRASQSVSSYLAWYQQKPGQAPRLLIHDVSNRATGIPARFSGSGSGTDFTLTISSLEPEDFVVYYCQQRSDWPITFGQGTRLEIKR
notes: Tested as bivalent human IgG1 from CHO primary supernatant
For the molecule B1, in assay [1], the “100 nM Ag Bound (RU)” value turned out to be 999 RU, binding was put at a Kd of 0.429 nM, the koff stood at 6.23e-05 s⁻¹ and the association rate constant (kon) stood at 144000 M⁻¹ s⁻¹. This molecule yielded a t½ in assay [1] of 185 min. In assay [2], the “100 nM Ag Bound (RU)” value was 634 RU, the Kd was found to be 8.11 nM, the koff came out at 0.000723 s⁻¹ and the association rate constant (kon) was 89200 M⁻¹ s⁻¹. The t½ in assay [2] is 16 min.

B2: 12798B (antibody, human IgG1, kappa, V domains shown)
VH: EVQLVESGGDLVQPGRSLRLSCAASGFTFDDYAMHWVRQAPGKGLEWVSGISWNSATRVYADSVKGRFTISRDNAKNFLYLQMNSLRSEDTALYHCAKDMDISLGYYGLDVWGQGTTVTVSS
VL: not shown
notes: Tested as bivalent human IgG1 from CHO primary supernatant; also called H1H12798B; REGN17507
Turning to B2, in assay [1], the “100 nM Ag Bound (RU)” value worked out at 1150 RU, binding was characterised by a dissociation constant (Kd) of 0.387 nM, the koff was determined as 6.33e-05 s⁻¹ and the kon was determined as 163000 M⁻¹ s⁻¹. Also, the t½ in assay [1] came to 183 min. Further, in assay [2], the “100 nM Ag Bound (RU)” value stood at 508 RU, the dissociation constant (Kd) was 16.3 nM, the koff was 0.00129 s⁻¹ and the kon came to 79000 M⁻¹ s⁻¹. The molecule further came in with a t½ in assay [2] of 9 min.

B3: 12833B (antibody, human IgG1, kappa, V domains shown)
VH: QVQLVESGGGVVQPGRSLRLSCAASGFTFSSFGMHWVRQAPGKGLEWVIFISYDGSDKYYADSVKGRFAISRDSSKNTLYLQMNSLRAEDTAVYYCAKENGILTDSYGMDVWGQGTTVTVSS
VL: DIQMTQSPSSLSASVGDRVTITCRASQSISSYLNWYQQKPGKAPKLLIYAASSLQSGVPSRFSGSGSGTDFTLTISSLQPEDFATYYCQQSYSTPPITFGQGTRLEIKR
notes: as for B1
Turning to B3, in assay [1], the “100 nM Ag Bound (RU)” value stood at 409 RU; the affinity, expressed as Kd, was 3.51 nM; the koff was 0.000252 s⁻¹; the kon is 72000 M⁻¹ s⁻¹. In assay [1], this molecule came in with a t½ of 45.9 min. For the same molecule, in assay [2], the “100 nM Ag Bound (RU)” value was 346 RU; the affinity, expressed as Kd, was 7.02 nM; the koff was found to be 0.000486 s⁻¹; the kon is 69200 M⁻¹ s⁻¹. Moreover, in assay [2], the t½ was 23.8 min.

B4: 12816B (antibody, human IgG1, kappa, V domains shown)
VH: QVQLVESGGGLVKPGGSLRLSCAASGFTFSDYYMNWIRQAPGKGLEWVSYISSSGTTIYYADSVKGRFTISRDNAKKSLYLEMNSLRAEDTAVYYCAREGYGNDYYYYGIDVWGQGTTVTVSS
VL: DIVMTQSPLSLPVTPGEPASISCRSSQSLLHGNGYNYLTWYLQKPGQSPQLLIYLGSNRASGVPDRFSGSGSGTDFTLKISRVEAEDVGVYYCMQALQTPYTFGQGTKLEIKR
notes: as for B1
Turning to B4, in assay [1], the “100 nM Ag Bound (RU)” value worked out at 357 RU, the equilibrium dissociation constant (Kd) is 5.8 nM, the koff came out at 0.000336 s⁻¹ and the kon is 57900 M⁻¹ s⁻¹. In assay [1], the t½ is 34.3 min. For the same molecule, in assay [2], the “100 nM Ag Bound (RU)” value worked out at 315 RU, binding was put at a Kd of 7.44 nM, the off-rate (koff) worked out at 0.000485 s⁻¹ and the association rate constant (kon) is 65200 M⁻¹ s⁻¹. Further, in assay [2], the t½ was 23.8 min.

B5: 69261 (antibody, human IgG1, kappa, V domains shown)
VH: QVQLVESGGGLVKPGGSLRLSCAASGFTFSVYYMNWIRQAPGKGLEWVSYISSSGSTIYYADSVKGRFTISRDNAKNSLYLQMNSLRAEDTAVYYCGREGYSGTYSYYGMDVWGQGTTVTVSS
VL: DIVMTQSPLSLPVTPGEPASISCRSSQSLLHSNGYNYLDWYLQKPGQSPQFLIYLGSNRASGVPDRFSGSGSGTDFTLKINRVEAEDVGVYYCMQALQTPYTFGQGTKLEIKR
notes: as for B1
Regarding B5, in assay [1], the “100 nM Ag Bound (RU)” value came to 462 RU, the equilibrium dissociation constant (Kd) turned out to be 1.16 nM, the koff came to 8.08e-05 s⁻¹ and the kon is 70000 M⁻¹ s⁻¹. The same molecule returned a t½ in assay [1] of 143 min. Besides, in assay [2], the “100 nM Ag Bound (RU)” value came out at 331 RU, the Kd was 5.9 nM, the off-rate constant (koff) turned out to be 0.000403 s⁻¹ and the association rate constant (kon) amounted to 68300 M⁻¹ s⁻¹. In assay [2], this molecule gave a t½ of 28.7 min.

B6: 69348 (antibody, human IgG1, kappa, V domains shown)
VH: QVQLVESGGGVVQPGRSLRLSCAASGFTFTTYGMHWVRQAPGKGLEWVAVIWYDGSNKYYGDSVKGRFTISRDNSKNTLYLQMNSLRVDDTAVYYCTRTHGYTRSSDGFDYWGQGTLVTVSS
VL: DIQMTQSPSSLSASVGDRVTITCRASQSIRNVLGWFQQKPGKAPQRLIYAASSLQSGVPSRFSGSGSGTEFTLTISSLQPEDFATYYCLQHNFYPLTFGGGTKVEIKR
notes: as for B1
Consider B6, for which, in assay [1], the “100 nM Ag Bound (RU)” value was determined as 680 RU, binding was put at a Kd of 1.62 nM, the koff was 0.000172 s⁻¹ and the on-rate constant (kon) amounted to 106000 M⁻¹ s⁻¹. In assay [1], this molecule gave a t½ of 67.2 min. Further, in assay [2], the “100 nM Ag Bound (RU)” value is 433 RU, the Kd was found to be 4.8 nM, the koff is 0.000461 s⁻¹ and the kon is 96000 M⁻¹ s⁻¹. For the same molecule, the t½ in assay [2] is 25.1 min.

B7: 31874B (antibody, human IgG1, kappa, V domains shown)
VH: EVQLVESGGGLVQPGGSLRLSCAASGFAFSSYAMTWVRQAPGKGLEWVSVISGTGGSTYYADSVKGRFTISRDNSKNTLYLQMNSLRAEDTAVYYCAKGGAARRMEYFQYWGQGTLVTVSS
VL: DIQMTQSPSSLSASVGDRVTITCRASQGISNYLAWYQQKPGKVPNLLIYAASTLQSGVPSRFSGSGSGTDFTLTISSLQPEDVATYYCQKYNSAPLTFGGGTKVEIKR
notes: Tested as bivalent human IgG1 from CHO primary supernatant; also called H1H31874B; REGN17517
With B7, in assay [1], the “100 nM Ag Bound (RU)” value was 904 RU, binding was put at a Kd of 0.836 nM, the koff is 0.000115 s⁻¹ and the kon came to 138000 M⁻¹ s⁻¹. Also, in assay [1], the t½ was found to be 100 min. In assay [2], the “100 nM Ag Bound (RU)” value is 26 RU, binding was put at a Kd of 14.4 nM, the dissociation rate constant (koff) stood at 0.00996 s⁻¹ and the on-rate constant (kon) turned out to be 691000 M⁻¹ s⁻¹. The same molecule had a t½ in assay [2] of 1.2 min.

B8: 69263 (antibody, human IgG1, kappa, V domains shown)
VH: EVQLVESGGGLVQPGRSLRLSCAVSGFTFDDYAMHWVRQAPGKGLEWVSGISWNSGTRGYADSVKGRFTISRDNAKNSLYLQMNSLRGEDTALYYCVKDITISPNYYGMDVWGQGTTVTVSS
VL: DIQMTQSPSSLSASVGDRVTITCRASQDISHYSAWYQQKPGKLPNLLIYAASTLQSGVPSRFSGSGSGTDFSLTTSSLQPEDVATYYCQKYNSVPLTFGGGTKVEIKR
notes: as for B1
B8: in assay [1], the “100 nM Ag Bound (RU)” value came to 150 RU, the Kd was determined as 6.5 nM, the koff came to 0.00115 s⁻¹ and the kon came to 177000 M⁻¹ s⁻¹. This molecule gave a t½ in assay [1] of 10 min. In addition, in assay [2], the “100 nM Ag Bound (RU)” value turned out to be 77 RU, the dissociation constant (Kd) was found to be 19.2 nM, the koff stood at 0.00378 s⁻¹ and the on-rate constant (kon) stood at 197000 M⁻¹ s⁻¹. In addition, the t½ in assay [2] was 3.1 min.

B9: 69331 (antibody, human IgG1, kappa, V domains shown)
VH: QVQLVESGGGVVQPGRSLRLSCIASGFTFSVYGIHWVRQAPGKGLEWMAVISHDGNIKHYADSVKGRFTISRDNSKNTLYLQINSLRTEDTAVYYCAKDTWNSLDTFDIWGQGTMVTVSS
VL: DIQLTQSPSSLSASVGDRVTITCWASQGISSYLAWYQQKPGKAPKLLIYAASTLQSGVPSRFSGSGSGTEFTLTISSLQPEDFATYYCQQLNSYPLTFGGGTKVEIKR
notes: as for B1
Consider B9, for which, in assay [1], the “100 nM Ag Bound (RU)” value stood at 87 RU; the affinity, expressed as Kd, was 41 nM; the off-rate (koff) came out at 0.00466 s⁻¹; the kon was 114000 M⁻¹ s⁻¹. This molecule yielded a t½ in assay [1] of 2.5 min. Besides, in assay [2], the “100 nM Ag Bound (RU)” value amounted to 26 RU, the Kd came out at 20.5 nM, the koff was 0.01 s⁻¹ and the association rate constant (kon) was 489000 M⁻¹ s⁻¹. The t½ in assay [2] amounted to 1.2 min.

B10: 69323 (antibody, human IgG1, kappa, V domains shown)
VH: EVQLVESGGGLVQPGRSLRLSCAASGFTFDDYAMHWVRQAPGKGLEWVSGISWNSGYIGYADSVKGRFTISRDNAENSLHLQMNSLRAEDTALYYCARGGSTLVRGVKGGYYGMDVWGQGTTVTVSS
VL: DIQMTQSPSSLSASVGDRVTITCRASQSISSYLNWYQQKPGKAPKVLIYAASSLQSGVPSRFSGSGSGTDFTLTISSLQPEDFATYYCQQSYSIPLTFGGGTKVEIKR
notes: as for B1
Turning to B10, in assay [1], the “100 nM Ag Bound (RU)” value is 465 RU, the Kd was found to be 2.45 nM, the koff worked out at 0.00018 s⁻¹ and the association rate constant (kon) worked out at 73400 M⁻¹ s⁻¹. This molecule also had a t½ in assay [1] of 64.1 min. Besides, in assay [2], the “100 nM Ag Bound (RU)” value came to 24 RU, the Kd was 19 nM, the koff worked out at 0.0106 s⁻¹ and the kon came out at 558000 M⁻¹ s⁻¹. Besides, the t½ in assay [2] was 1.1 min.

B11: 12799B (antibody, human IgG1, kappa, V domains shown)
VH: QITLKESGPTLVKPTQTLTLTCTFSGFSLSTSGVGVVWIRQPPGKALEWLALIYWNDHKRYSPSLGSRLTITKDTSKNQVVLTMTNMDPVDTATYYCAHYSGSYSYYYYGLDVWGQGTTVTVSS
VL: DIQMTQSPSSVSASVGDRVTITCRASQGIASWLAWYQQKPGKAPELLIYAASSLQGGVPSRFSGSGSGTDFTLTISSLQPEDFAIYYCQQANYFPWTFGQGTKVEIKR
notes: Tested as bivalent human IgG1 from CHO primary supernatant; also called H1H12799B; REGN17508
On to B11, for which, in assay [1], the “100 nM Ag Bound (RU)” value turned out to be 699 RU, binding was put at a Kd of 0.851 nM, the dissociation rate constant (koff) is 6.62e-05 s⁻¹ and the kon amounted to 77600 M⁻¹ s⁻¹. Besides, in assay [1], the t½ worked out at 174 min. In assay [2], the “100 nM Ag Bound (RU)” value is 651 RU; the affinity, expressed as Kd, was 1.88 nM; the koff amounted to 0.000162 s⁻¹; the on-rate constant (kon) was 86400 M⁻¹ s⁻¹. The same molecule gave a t½ in assay [2] of 71.2 min.

For the origin of these results see patent publication US20250049896A1 (Regeneron, published 2025).
